We go through one molecule from patent US20030166036A1, “Protease and an aminopeptidase associated with development of benign prostatic hyperplasia (BPH)” (priority 2001, published 2003).

The target in data set [1] is T1, PSA (Homo sapiens, UniProt P07288).
T1 construct: Unlike the purified mature PSA, pPSA was isolated from a recombinant expression system; from tissue; host or cells: seminal plasma
As to the kind of experiment: Incubation of PSA with lysyl endopeptidase C, cleavage followed by HIC-HPLC and N-terminal sequencing. It is filed as biochemical. How it is done: (§1) High-performance hydrophobic interaction chromatography (HIC-HPLC) was performed using a polypropylaspartamide column (PolyLC, distributed by Western Analytical, Temecula, Calif.). The column was 4.6×250 mm in length with a 1000 Å pore size. Samples were applied in 1.5 M ammonium sulfate and eluted with a gradient. Buffers were prepared as follows. Buffer A consisted of 1.2 M sodium sulfate, 25 mM sodium phosphate, and a pH of 6.3, and Buffer B consisted of 50 mM sodium phosphate and 5% v/v 2-propanol. The gradient was 0-30% B for 1 minute, 30-60% B 10 minutes, followed by re-equilibration in Buffer A. High-sensitivity peak detection was obtained with a Varian Model 9070 (Varian Medical Systems, Palo Alto, Calif.) scanning fluorescence detector using an excitation of 232 nm and an emission of 334 nm to detect the tryptophan residues in protein.
N-terminal sequence analysis of the samples was performed on a PE-Applied Biosystems Model 492 amino acid sequencer (PE-Applied Biosystems, Foster City, Calif.). Purified PSA and peaks collected by HIC-HPLC were applied directly to Prosorb cartridges (PE-Applied Biosystems, Foster City, Calif.), washed three times with 0.1 ml 0.01% trifluoroacetic acid, and applied to the sequencer.
Samples of PSA and proPSA were incubated with 0.1% lysyl endopeptidase C (Wako Cemicals USA, Richmond, Va.) in PBS at pH 7 for the times indicated in the figures. The LysC reaction was quenched by the addition of a 10-fold molar excess of aprotinin prior to analysis by HIC-HPLC. The internal cleavage sites of the different HIC-HPLC peaks were determined by N-terminal sequencing.
We also examined the digestion of PSA with LysC in vitro to determine the relative susceptibility of the Lys145 and Lys182 sites.

The target in data set [2] is T2, proPSA (Homo sapiens, UniProt P07288).
T2 construct: due to the altered folding in the zymogen form of PSA; made in house
The experiment in a line: Incubation of proPSA with lysyl endopeptidase C, cleavage followed by HIC-HPLC. It is filed as biochemical. The conditions noted are these: recombinant pPSA (zymogen), 0.1% LysC in PBS pH 7. As for the experimental part: as §1
Samples of PSA and proPSA were incubated with 0.1% lysyl endopeptidase C (Wako Cemicals USA, Richmond, Va.) in PBS at pH 7 for the times indicated in the figures. […] The internal cleavage sites of the different HIC-HPLC peaks were determined by N-terminal sequencing.
ProPSA (pPSA) was also incubated with LysC to determine if there was any difference between the cleavage of the Lys145 and Lys182 sites due to the altered folding in the zymogen form of PSA. […] The cleavage of the Lys182 and Lys145 sites in pPSA was also monitored by HIC-HPLC. […]

T1 sequence (P07288 25-261): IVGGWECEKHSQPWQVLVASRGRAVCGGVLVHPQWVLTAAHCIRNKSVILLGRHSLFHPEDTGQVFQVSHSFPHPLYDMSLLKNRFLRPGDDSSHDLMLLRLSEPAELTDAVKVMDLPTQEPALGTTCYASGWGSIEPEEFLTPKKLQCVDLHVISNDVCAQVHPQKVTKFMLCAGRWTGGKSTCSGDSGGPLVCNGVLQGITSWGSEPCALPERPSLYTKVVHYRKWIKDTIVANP
T2 sequence (P07288 18-261 limits assumed): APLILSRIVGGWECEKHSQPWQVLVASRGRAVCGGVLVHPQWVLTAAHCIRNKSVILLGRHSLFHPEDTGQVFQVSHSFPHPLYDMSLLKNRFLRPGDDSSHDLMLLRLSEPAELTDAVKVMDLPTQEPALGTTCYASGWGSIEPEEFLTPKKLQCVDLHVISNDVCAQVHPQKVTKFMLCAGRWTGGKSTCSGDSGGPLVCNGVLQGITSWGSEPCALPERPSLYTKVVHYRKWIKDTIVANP

B1: LysC: lysyl endopeptidase C (Wako), commercial protease with wide specificity for lysine residues, used to cleave PSA in vitro (protein)
chain: GVSGSCNIDVVCPEGDGRRDIIRAVGAYSKSGTLACTGSLVNNTANDRKMYFLTAHHCGMGTASTAASIVVYWNYQNSTCRAPNTPASGANGDGSMSQTQSGSTVKATYATSDFTLLELNNAANPAFNLFWAGWDRRDQNYPGAIAIHHPNVAEKRISNSTSPTSFVAWGGGAGTTHLNVQWQPSGGVTEPGSSGSPIYSPEKRVLGQLHGGPSSCSATGTNRSDQYGRVFTSWTGGGAAASRLSDWLDPASTGAQFIDGLDSGGGTP
For the molecule B1, the “Lys182 cleaved more rapidly than Lys145” value in data set [1] (PSA digested with LysC in vitro) was “approximately 30 times”. Further, the “PSA cleaved at Lys182” value in data set [1] (after 30 minutes of incubation with LysC) is 100%. The “initial rate of cleavage at Lys182” value in data set [1] (mature PSA purified from seminal plasma, 0.1% LysC in PBS pH 7) is 12 % per minute. Further, the “rate of cleavage at Lys145” value in data set [1] (mature PSA, 0.1% LysC in PBS pH 7, based on time points greater than 30 minutes) was 0.3 % per minute. In data set [2], the “initial rate of cleavage of the Lys182” value is listed as 8 % per minute and the “rate of cleavage at Lys145” value is listed as “about 0.6 % per minute”.
